This is an account of results in PMC2788227 (PLoS ONE, 2009).

The series deals with the molecule itself. Kind of series: SEC. In general terms: In gel filtration, larger molecules generally elute earlier.

B1: Francisella tularensis subsp. holarctica LVS 1-deoxy-D-xylulose 5-phosphate reductoisomerase (MEP sy (enzyme)
chain: MFKKTKITILGATGSIGDSTLAVIRETNDFEVFALTAFSNVEKLAELCQEFKPKFAVVPDLSKKQKLQSLVTDVEVLVGESGLEKVSSLAEIDIVMSAIVGIAGLKPTFAAAKAGKKILLANKESLVTAGHLLIDEVVKNNAQLIPVDSEHNAIFQCIDNHDKKCLPEIDKIILTASGGPFRDKQLHELTDVTPEQACNHPNWQMGRKISVDSSTMVNKALEVIEAYWLFSVSADKIGVLIHPQSVTHSIVRYVDGSYIAQLGVPDMKTPIANAMYYPKRGSVNVESLDFTKYQLTFREACFERFEALKIVFNNLQNKNYAANIVFNAANEELVAAFLNKKIKYLEIIEVNKKVTKELNFENPKNIEEVFEIDRKTREYVDSVLG
As usually defined, the stoichiometry N is a count of units in the complex or per binding partner. Turning to B1, the “stoichiometry N” value was found to be 2.
